Measured values as given in patent KR20140116416A.

Target: H5 hemagglutinin expressed on transfected cells (pJK2b-HA5) (influenza A virus, subtype H5; strain not stated)
Test: cell-based or functional assay

B1: 항체 4D9 (antibody 4D9), purified (antibody, V domains shown)
VH: QVTLRESGPGLVKPSETLSLTCTISGASINTDYWSWIRQPPGKGLEWIGYIYYRGRTNYNPSLRSRVTISVDTSKNQFSLQMTSMTAADTAVYYCARDVTGISRENAFDIWGQGTLVTVSS
VL: AIRMTQSPSSLSASVGDRVTITCRASQSISGYLNWYQQKPGKAPKLLIYAASSLQSGVPSRFSGSGSGTDFTLTISSLQPEDFATYYCQQSYSIPTTFGQGTRLEIK
- cell fusion inhibition: 50 to 60%
